Results: US20250145716A1 (RAKUTEN MEDICAL, published 2025)

Assays:
[1] = molecular target: T1, PD-L1-His (Acro Cat PDL-H5229) (human, UniProt Q9NZQ7 19-238); test: SPR (Biacore 4000), antibody captured on anti-human CM4 chip, PD-L1-His analyte, 37° C.
T1 construct: also called human PD-L1 (SPR analyte); not shown: His tag
Method: (§1) The binding affinities of the generated antibodies to human PD-L1 were determined by surface plasmon resonance. […] PD-L1-His (Acro Cat PDL-H5229) was tested for binding in a 3-fold titration series up to 100 nM. Data were collected in HBS-P (pH 7.4) at 37° C. and 25° C.

[2] = molecular target: T2, 6xHis-tagged cyPD-L1 (cynomolgus monkey, UniProt Q9NZQ7 19-238 (human entry)); test: ELISA, plate-coated 6xHis cyPD-L1, OD 450 nm
T2 construct: The assay text says only '6xHis-tagged cyPD-L1'; also called cynomolgus PD-L1; not shown: 6xHis tag
T2 sequence (Q9NZQ7 other isoform, or with tags, fused parts or gaps): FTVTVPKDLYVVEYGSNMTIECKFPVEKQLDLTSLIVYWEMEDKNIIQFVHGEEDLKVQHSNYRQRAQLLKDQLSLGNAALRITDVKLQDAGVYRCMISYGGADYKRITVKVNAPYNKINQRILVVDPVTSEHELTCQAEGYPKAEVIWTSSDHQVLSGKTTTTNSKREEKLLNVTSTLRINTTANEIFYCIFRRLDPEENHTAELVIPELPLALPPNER
Method: (§2) Hybridoma supernatants were tested for binding to huPD-L1, cyPD-L1, and muPD-L1 by ELISA. Briefly, 30 μL 6xHis-tagged huPD-L1, cyPD-L1, or muPD-L1 (1 μg/mL in PBS) were immobilized in wells of a 96-well assay plate overnight at 4° C. After washing and blocking steps, 30 μL of antibody supernatant were added to the plate and incubated at room temperature for 1 hr. Bound human antibody was detected using horseradish peroxidase (HRP)-conjugated goat anti-human Fc (Invitrogen Cat. No. 109-035-097; diluted 1:5000) or goat anti-mouse Fc HRP (Invitrogen Cat. No. 115-035-071) as a control. Bound antibody was detected with 1-Step Ultra™ TMB-ELISA Substrate (ThermoFisher Scientific Cat. No. 34029). When the reaction was complete the reaction was stopped, and the plate was read at 450 nm.
(§3) Anti-PD-L1 antibodies, described in Example 1A and manufactured substantially as described in Example 1B, were tested for to huPD-L1 and cyPD-L1 by ELISA substantially as described in Example 1A, using 12 dilutions of antibody ranging from 1 ng/ml to 3 mg/mL.

[3] = molecular target: T1, PD-L1-His (Acro Cat PDL-H5229); test: SPR (Biacore 4000), antibody captured on anti-human CM4 chip, PD-L1-His analyte, 25° C.
Method: as §1

[4] = molecular target: T3, human B7-2/CD86 (RD Systems 9090-B2) (human, UniProt P42081 24-247, limits assumed); test: ELISA, plate-coated human B7-2/CD86 (1 µg/mL), OD 450 nm, B7 ligand specificity panel
T3 sequence (looked up): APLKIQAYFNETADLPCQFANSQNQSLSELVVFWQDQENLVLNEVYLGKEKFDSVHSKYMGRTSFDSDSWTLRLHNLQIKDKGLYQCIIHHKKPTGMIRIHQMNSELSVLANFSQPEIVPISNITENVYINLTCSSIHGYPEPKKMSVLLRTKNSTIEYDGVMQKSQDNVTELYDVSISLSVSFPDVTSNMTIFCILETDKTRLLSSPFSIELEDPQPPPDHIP
Method: as §2
(§4) Briefly, wells of a 96-well plate (Corning 3690) were incubated with 30 μL human PD-L1 (RD Systems 9049-B7), human PD-L2 (RD Systems 9075-PL), human B7-1/CD80 (RD Systems 9050-B1), human B7-2/CD86 (RD Systems 9090-B2), human B7-H2 (RD Systems 8206-B7), or human B7-H3 (RD Systems 1949-B3), at a concentration of 1 μg/mL in PBS, overnight at 4C, to coat the wells with ligand. After washing and blocking steps, 30 μL of antibody at 8 concentrations ranging from 1 ng/mL to 3 mg/mL were added to the plate and incubated at room temperature for 1 hr. Bound human antibody was detected as described above.

[5] = molecular target: T4, human PD-L1 expressed on cells (human, UniProt Q9NZQ7 19-290); test: flow cytometry on unstimulated A431 cells (MFI against antibody concentration)
T4 construct: whole, on cells; One entry covers all human PD-L1-bearing cells; also called huPD-L1 on CHO cells (CHO-hPD-L1); PD-L1 on A431 cells
T4 sequence (Q9NZQ7 19-290): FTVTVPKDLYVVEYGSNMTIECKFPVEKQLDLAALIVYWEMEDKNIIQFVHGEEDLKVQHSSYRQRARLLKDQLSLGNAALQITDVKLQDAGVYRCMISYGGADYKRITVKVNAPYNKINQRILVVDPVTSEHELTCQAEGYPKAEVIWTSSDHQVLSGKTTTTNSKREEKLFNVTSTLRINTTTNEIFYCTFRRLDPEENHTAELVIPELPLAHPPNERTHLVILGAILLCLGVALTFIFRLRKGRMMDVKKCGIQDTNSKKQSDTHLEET
Method: (§5) Approximately 2.5×10⁵ A431 squamous cell carcinoma cells were plated in a final volume of 50 μL FACS buffer (phosphate buffered saline, 1% fetal bovine serum, 5 mM EDTA) in 96-well plates. 50 μL 2× Zombie Violet (BioLegend) were added to each well, and the plates were incubated 20-30 minutes at room temperature, protected from light. After incubation, 150 μL FACS buffer were added to each well. The plates were centrifuged at 500×g for 5 minutes. The supernatant was removed, and the cell pellet were resuspended in 200 μL FACS buffer. The wash procedure was repeated for a total of 2-3 washes. […] After the cells were incubated with the primary anti-PD-L1 antibody 1 hour on ice, protected from light, 150 μL FACS buffer were added to each well. The plates were then centrifuged, the supernatant was removed, and the cells were resuspended in 250 μL FACS buffer three times. After the third wash, the cells were resuspended in 100 μL goat anti-human IgG-Alexa Fluor 488 secondary antibody, and incubated for 30 minutes on ice, protected from light. After 3 washes as previously described, the cells were resuspended in 200 μL FACS buffer. The cells were then analyzed using a CytoFLEX flow cytometer.

[6] = molecular target: T5, 6xHis-tagged huPD-L1 (human, UniProt Q9NZQ7 19-238); test: ELISA, plate-coated 6xHis huPD-L1, OD 450 nm
T5 construct: also called human PD-L1 (RD Systems 9049-B7); extracellular domain of human PD-L1 fused to a His tag; not shown: 6xHis tag
T5 sequence (Q9NZQ7 19-238): as the sequence (Q9NZQ7 other isoform, or with tags, fused parts or gaps) above, with T33A, S34A, N62S, Q68R, R82Q, L173F, A185T, I192T, L215H counted along it
Method: as §2, §3

[7] = molecular target: T5, 6xHis-tagged huPD-L1; test: ELISA, plate-coated human PD-L1 (1 µg/mL), OD 450 nm, B7 ligand specificity panel
Method: as §2, §4

[8] = molecular target: T4, human PD-L1 expressed on cells; test: flow cytometry on unstimulated A431 cells, ratio of EC50 values
Method: as §5

[9] = molecular target: T4, human PD-L1 expressed on cells; test: cell-based or functional assay

T1 sequence (Q9NZQ7 19-238 limits assumed): as the sequence (Q9NZQ7 other isoform, or with tags, fused parts or gaps) above, with T33A, S34A, N62S, Q68R, R82Q, L173F, A185T, I192T, L215H counted along it

B1: 1P9 (antibody, V domains shown)
VH: EVQLVESGGGLVQPGGSLRLSCAASGFTFSTYWMSWVRQAPGKGLEWVANIKQDGGERYYVDSVKGRFTISRDNAKSSLYLQMNSLRAEDTALYYCARLRLYSDYEDYWGQGTLVTVSS
VL: DIQMTQSPSSVSASVGDRVTITCRASQGISSWLAWYQQKPGKAPKLLIYSVSSLQSGVPSRFSGSGSGTDFTLTISSLQPEDSATYYCQQANSLPPTFGGGTKVEIK
notes: Recombinant full-length human antibody expressed in CHO K1 GS KO cells, with wild-type human Fc; also called anti-PD-L1 antibody 1P9; Unconj; 1P9
- Kd [1]: 1.1 nM
- koff [1]: 0.00037 s⁻¹
- kon [1]: 330000 M⁻¹ s⁻¹
- EC50 [2]: 0.0338 µg/mL
- Kd [3]: 0.27 nM
- koff [3]: 5.1e-05 s⁻¹
- kon [3]: 190000 M⁻¹ s⁻¹
- EC50 [4]: 1.14 µg/mL
- EC50 [5]: 0.0159 µg/mL
- EC50 [6]: 0.0359 µg/mL
- EC50 [7]: 0.0953 µg/mL
- fold potency against avelumab [8]: 3.5 fold
- EC50 of luminescence (RLU), PD-1:PD-L1 Blockade Bioassay (PD-L1 aAPC/CHO-K1 cells with PD-1 Effector Jurkat NFAT-luciferase cells) [9]: 0.067 µg/mL
